Data from patent US20100285988A1.
Read-outs that look alike come from different tables or passages of the source.

Columns and labels:
[1] = target: T1, γ-secretase (human; HeLa cell membrane / solubilized HeLa membrane; endogenous in HEK293 cells) (human), P49768; conditions: modification not given
[2] = target: T1, γ-secretase (human; HeLa cell membrane …); conditions: modification not given; remark: listed apart in the source

Binder: LVFFAEDV
- IC50 [1]: 8.9 µM

Binder: KLVFFAED
- IC50 [2]: 14 µM
